Assay results from patent publication US20160041181A1, “NMR ASSAY TO SCREEN PROTEIN-PROTEIN INTERACTION INHIBITORS” (RUTGERS, THE STATE UNIVERSITY OF NEW JERSEY, priority 2013, published 2016).
Non-standard residues stand in square brackets, D forms with d. No end group written: not given here.

Legend:
Format in all cases: binding, influenza A/Udorn/307/1972 (H3N2)
[1] = biological target: T1, NS1A ED (Influenza A virus, UniProt P03495); settings: 200 uM ED, 0, 50, 100, 200, 300 uM test peptide
T1 construct: made in house; host or cells: Escherichia coli BL21(DE3)-Gold, pET21_NESG vector
T1 sequence (P03495 85-215): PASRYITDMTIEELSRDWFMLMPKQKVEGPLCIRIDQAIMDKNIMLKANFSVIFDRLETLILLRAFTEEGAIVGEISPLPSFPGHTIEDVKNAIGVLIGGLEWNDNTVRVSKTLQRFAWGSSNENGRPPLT

[2] = biological target: T1, NS1A ED; experiment: 1D 19F NMR assay of 5FW-labeled NS1A ED with designed peptide
Source text: In one exemplary embodiment, the candidate compound is a D-peptide having a sequence dN-Y-F-Y-S-L-F-dQ-G (see FIG. 14). The peptide has the ability to bind NS1A at the site normally used to sequester CPSF30. This same site on NS1A is also responsible for cooperative homodimerization interactions that contribute to an alternative cooperative mechanism by which ED:ED domain interactions contribute to the free energy for binding dsRNA by NS1A.
One-dimensional (1D) ^19F NMR spectroscopy was performed locked and at 20° C. on a Varian INOVA 500 MHz spectrometer equipped with a room temperature 5-mm ^1H/^19F switchable probe at a frequency of 470.18 MHz. All ^19F NMR spectra were acquired using VNMRJ 2.1B and referenced to external neat trichlorofluoromethane, CFCl3. Typical 1D ^19F NMR acquisition parameters were as follows: a 20,000 Hz sweep width (42.5 ppm), a 0.35 s acquisition time, a 5 s relaxation delay time, and a 5.0 μs 90° pulse length.
^19F NMR is an ideal assay for characterizing binding and inhibition of the NS1A protein. Using 1D ^19F NMR, it was possible to identify the binding location of a designed peptide according to its proximity to the nearest ^19F labeled Trp amino acids (see FIG. 16A vs. FIG. 16B).

[3] = biological target: T1, NS1A ED; experiment: Dissociation constant for homodimerization of NS1A ED (dimer-monomer equilibrium); settings: low salt pH 8 buffer

dAsn-Tyr-Phe-Tyr-Ser-Leu-Phe-dGln-Gly ([dN]YFYSLF[dQ]G) [test peptide, designed D-amino acid capped peptide based on the CPSF30 helix …]
exchange regime at the binding site (15N-1H HSQC) ([1]; binding site): slow-exchange, indicative of strong binding
exchange regime at other residues of the ED (15N-1H HSQC) ([1]; other residues of the ED): fast-exchange, or weak binding
exchange regime of residue W187 (15N-1H HSQC) ([1]; residue W187): slow-exchange indicative of tight binding
19F chemical shift change of the Trp102 and Trp203 resonances ([2]; Trp102 and Trp203, listed as dAsn-Tyr-Phe-Tyr-Ser-Leu-Phe-dGln-Gly): no significant impact
19F chemical shift change of the Trp102 and Trp203 resonances ([2]; Trp102 and Trp203, listed as dN-Y-F-Y-S-L-F-dQ-G): no chemical shift perturbations
19F chemical shift change of the Trp187 resonance ([2]; Trp187, listed as dAsn-Tyr-Phe-Tyr-Ser-Leu-Phe-dGln-Gly): strong ^19F chemical shift change
19F chemical shift change of the Trp187 resonance ([2]; Trp187, listed as dN-Y-F-Y-S-L-F-dQ-G): strong chemical shift perturbations

5fW NS1A ED: NS1A effector domain biosynthetically labeled with 5-fluoro-tryptophan
Kd [3]: 7 ± 5 µM
